For data set [1], the target named is factor Va (UniProt P12259).
Data set [2] deals with T1, factor Va, P12259.
T1 chain 1: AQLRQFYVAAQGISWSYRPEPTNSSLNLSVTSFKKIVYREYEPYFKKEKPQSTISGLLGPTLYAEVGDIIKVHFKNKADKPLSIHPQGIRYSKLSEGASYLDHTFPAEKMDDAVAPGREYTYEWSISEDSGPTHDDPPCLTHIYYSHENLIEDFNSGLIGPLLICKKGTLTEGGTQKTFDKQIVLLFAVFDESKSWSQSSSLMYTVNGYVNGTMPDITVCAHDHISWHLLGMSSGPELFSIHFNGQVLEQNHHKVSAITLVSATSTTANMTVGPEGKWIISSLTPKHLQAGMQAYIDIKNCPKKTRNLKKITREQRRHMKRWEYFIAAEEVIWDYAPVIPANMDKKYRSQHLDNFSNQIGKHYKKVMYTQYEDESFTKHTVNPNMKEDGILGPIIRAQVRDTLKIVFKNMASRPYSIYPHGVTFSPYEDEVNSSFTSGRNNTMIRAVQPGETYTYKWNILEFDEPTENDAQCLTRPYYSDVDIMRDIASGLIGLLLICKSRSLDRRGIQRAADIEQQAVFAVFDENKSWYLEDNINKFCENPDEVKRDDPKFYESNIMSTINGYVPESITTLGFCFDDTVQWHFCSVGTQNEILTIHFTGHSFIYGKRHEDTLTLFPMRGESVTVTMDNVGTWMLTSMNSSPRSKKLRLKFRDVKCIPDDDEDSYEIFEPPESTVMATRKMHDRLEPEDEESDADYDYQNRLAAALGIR
T1 chain 2: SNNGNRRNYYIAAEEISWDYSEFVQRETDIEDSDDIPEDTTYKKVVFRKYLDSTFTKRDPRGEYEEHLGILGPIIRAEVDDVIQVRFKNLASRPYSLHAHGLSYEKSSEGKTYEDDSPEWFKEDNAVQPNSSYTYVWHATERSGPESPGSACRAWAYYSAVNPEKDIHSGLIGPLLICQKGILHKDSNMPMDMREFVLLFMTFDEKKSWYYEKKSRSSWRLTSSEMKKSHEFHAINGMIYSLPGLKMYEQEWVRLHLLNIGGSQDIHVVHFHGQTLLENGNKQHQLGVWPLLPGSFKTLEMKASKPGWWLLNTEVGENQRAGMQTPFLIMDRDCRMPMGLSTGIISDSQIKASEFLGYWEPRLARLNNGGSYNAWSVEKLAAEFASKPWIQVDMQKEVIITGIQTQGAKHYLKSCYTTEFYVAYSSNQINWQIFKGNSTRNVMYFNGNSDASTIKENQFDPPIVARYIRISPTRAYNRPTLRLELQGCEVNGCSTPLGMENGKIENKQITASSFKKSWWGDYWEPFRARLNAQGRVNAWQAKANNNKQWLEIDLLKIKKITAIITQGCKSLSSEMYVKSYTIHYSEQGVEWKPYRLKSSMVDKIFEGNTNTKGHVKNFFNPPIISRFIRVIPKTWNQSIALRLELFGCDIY

The values that follow come from patent US8383386.

recombinant factor Xa variant Ile16→Gly: the “Km for peptidyl substrates after assembly into prothrombinase” value in data set [1] is “even the Km value for I235G was almost completely restored (3-fold increased compared to wild-type FXa) when assembled in prothrombinase”.

B1: recombinant factor Xa variant Val17→Ala (protein)
chain 1: ANSFLEEMKKGHLERECMEETCSYEEAREVFEDSDKTNEFWNKYKDGDQCETSPCQNQGKCKDGLGEYTCTCLEGFEGKNCELFTRKLCSLDNGDCDQFCHEEQNSVVCSCARGYTLADNGKACIPTGPYPCGKQTLER
chain 2: IAGGQECKDGECPWQALLINEENEGFCGGTILSEFYILTAAHCLYQAKRFKVRVGDRNTEQEEGGEAVHEVEVVIKHNRFTKETYDFDIAVLRLKTPITFRMNVAPACLPERDWAESTLMTQKTGIVSGFGRTHEKGRQSTRLKMLEVPYVDRNSCKLSSSFIITQNMFCAGYDTKQEDACQGDSGGPHVTRFKDTYFVTGIVSWGEGCARKGKYGIYTKVTAFLKWIDRSMKTRGLPKAKSHAPEVITSSPLK
Take B1: in data set [2], the “Km for peptidyl substrates after assembly into prothrombinase” value was “the assembly of FXaI235L and FXaV236A into prothrombinase almost completely restored the Km for peptidyl substrates”.
